Numbering of substitutions follows the chain as printed.
B1: anti-PD-L1/anti-CD47 heterodimeric antibody BH3016 (bispecific antibody)
heavy 1: EVQLVQSGAEVKKPGSSVKVSCKASGFNIEDTYIHWVRQAPGQGLEWMGRIDPANANTKYDPKFQGRVTITADTSTNTAYMELSSLRSEDTAVYYCGRGLGAWFAYWGQGTLVTVSS
light 1: DIQMTQSPSSLSASVGDRVTITCKASQDVHTAVAWIQQKPGKSPKLLIYSASNRYTGVPSRFSGSGSGTDFTFTISSLQPEDIATYYCQQHYITPLTFGQGTKLEIKRTVAAPSVFIFPPSDEQLKSGTASVVCLLNNFYPREAKVQWKVDNALQSGNSQESVTEQDSKDSTYSLSSTLTLSKADYEKHKVYACEVTHQGLSSPVTKSFNRGEC
heavy 2: QVQLVQSGAEVKKPGSSVKVSCKASGFNIEDIYMHWVRQAPGQGLEWMGRIDPANDNTKYGPKLQGRVTITADESTSTAYMELSSLRSEDTAVYYCVRRIPTDIMDYWGQGTTVTVSSASTKGPSVFPLAPSSKSTSGGTAALGCLVKDYFPEPVTVSWNSGALTSGVHTFPAVLQSSGLYSLSSVVTVPSSSLGTQTYICNVNHKPSNTKVDKKVEPKSCDKTHTCPPCPAPELLGGPSVFLFPPKPKDTLMISRTPEVTCVVVDVSHEDPEVKFNWYVDGVEVHNAKTKPREEQYASTYRVVSVLTVLHQDWLNGKEYKCKVSNKALPAPIEKTISKAKGQPREPQVYTEPPSRDELTKNQVSLTCLVKGFYPSDIAVEWESNGQPENNYKTTPPVLDSDGSFFLLSVLTVDKSRWQQGNVFSCSVMHEALHNHYTQKSLSLSPGK
light 2: DIQMTQSPSSLSASVGDRVTITCKASQNVRTSIAWYQQKPGKAPKTLIYLASNRHTGVPSRFSGSGSGTEFTLTISNLQPEDFATYYCLQHWNYPFTFGQGTKLEIKRTVAAPSVFIFPPSDEQLKSGTASVVCLLNNFYPREAKVQWKVDNALQSGNSQESVTEQDSKDSTYSLSSTLTLSKADYEKHKVYACEVTHQGLSSPVTKSFNRGEC
B2: anti-PD-L1/anti-CD47 heterodimeric antibody BH3012h (bispecific antibody)
heavy 1: B1 heavy 1
light 1: B1 light 1
heavy 2: B1 heavy 2 with E74T, S77N
light 2: B1 light 2
B3: anti-PD-L1/anti-CD47 heterodimeric antibody BH3015 (bispecific antibody)
heavy 1: B1 heavy 1
light 1: B1 light 1
heavy 2: B1 heavy 2 with E74T
light 2: B1 light 2 with T46R
B4: anti-PD-L1/anti-CD47 heterodimeric antibody BH3014 (bispecific antibody)
heavy 1: B1 heavy 1
light 1: B1 light 1
heavy 2: B1 heavy 2 with S77N, V97A
light 2: B1 light 2 with T46R
B5: CD47 monoclonal antibody (heavy and light chain variable region sequences of the humanized sequences z11 of the antibody CD47-18-5 and the constant region … (antibody, V domains shown)
VH: QVQLVQSGAEVKKPGSSVKVSCKASGFNIEDIYMHWVRQAPGQGLEWMGRIDPANDNTKYGPKLQGRVTITADTSTNTAYMELSSLRSEDTAVYYCVRRIPTDIMDYWGQGTTVTVSS
VL: DIQMTQSPSSLSASVGDRVTITCKASQNVRTSIAWYQQKPGKAPKTLIYLASNRHTGVPSRFSGSGSGTEFTLTISNLQPEDFATYYCLQHWNYPFTFGQGTKLEIK

These binders were tested against T1, human PD-L1-Fc (ACROBiosystems, catalog number PD1-H5258) (human, UniProt Q9NZQ7 19-238) (assay: competition ELISA; blocking PD-L1/PD-1).
T1 sequence (Q9NZQ7 19-238): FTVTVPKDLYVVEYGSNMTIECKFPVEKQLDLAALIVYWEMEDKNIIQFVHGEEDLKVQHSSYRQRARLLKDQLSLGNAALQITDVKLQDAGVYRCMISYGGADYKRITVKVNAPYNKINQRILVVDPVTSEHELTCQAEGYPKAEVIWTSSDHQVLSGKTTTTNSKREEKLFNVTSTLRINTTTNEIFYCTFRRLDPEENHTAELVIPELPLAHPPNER

Q: How did the EC50 turn out when B1 was run?
A: 1.5 nM

Q: With B2 as the binder, how does the EC50 read?
A: 1.54 nM

Q: Which EC50 does the source give for B3 here?
A: 1.67 nM

Q: Which EC50 does the source give for B4 here?
A: 1.63 nM

What follows are binders tested against recombinant human PD-L1 (Sino Biological Inc., catalog number 10084-H08H) (human, UniProt Q9NZQ7 19-239) (assay: ELISA).
Sequence of recombinant human PD-L1 (Sino Biological Inc., catalog number 10084-H08H) (Q9NZQ7 19-239): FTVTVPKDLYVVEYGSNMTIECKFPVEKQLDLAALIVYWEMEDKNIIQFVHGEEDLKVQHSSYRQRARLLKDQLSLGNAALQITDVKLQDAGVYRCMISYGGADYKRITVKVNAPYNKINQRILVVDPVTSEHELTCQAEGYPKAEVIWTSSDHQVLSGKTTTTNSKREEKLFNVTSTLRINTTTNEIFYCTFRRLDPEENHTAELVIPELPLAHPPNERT

Q: For B1, which EC50 is on record?
A: 0.251 nM

Q: With B2 as the binder, how does the EC50 read?
A: 0.261 nM

Q: For B3, which EC50 is on record?
A: 0.262 nM

Q: With B4 as the binder, how does the EC50 read?
A: 0.234 nM

These binders were tested against human CD47 (ACROBiosystems, catalog number CD7-H5227) (human, UniProt Q08722 19-139) (assay: ELISA).
Sequence of human CD47 (ACROBiosystems, catalog number CD7-H5227) (Q08722 19-139): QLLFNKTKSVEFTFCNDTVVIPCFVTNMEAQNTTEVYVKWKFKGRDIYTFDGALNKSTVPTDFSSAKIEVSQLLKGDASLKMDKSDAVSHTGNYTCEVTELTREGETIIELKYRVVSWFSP

Q: With B5 as the binder, how does the EC50 read?
A: 0.094 nM

Q: B1 was tested. Which EC50 did it give?
A: 0.491 nM

Q: With B2 as the binder, how does the EC50 read?
A: 0.134 nM

Q: How did the EC50 turn out when B3 was run?
A: 2.49 nM

Q: How did the EC50 turn out when B4 was run?
A: 68.4 nM

Each binder was assayed against T1, human PD-L1-Fc (ACROBiosystems, catalog …) (assay: competition ELISA; blocking PD-L1/CD80).

Q: With B1 as the binder, how does the EC50 read?
A: 1.29 nM

Q: With B2 as the binder, how does the EC50 read?
A: 1.78 nM

Q: How did the EC50 turn out when B3 was run?
A: 1.97 nM

Q: For B4, which EC50 is on record?
A: 1.5 nM

These binders were tested against recombinant human CD47-Fc (ACROBiosystems, catalog number CD7-H52A5) (human, UniProt Q08722 19-139) (assay: competition ELISA; blocking CD47/SIRPα).
Sequence of recombinant human CD47-Fc (ACROBiosystems, catalog number CD7-H52A5) (Q08722 19-139): as above

Q: How did the EC50 turn out when B5 was run?
A: 2.26 nM

Q: B1 was tested. Which EC50 did it give?
A: 6.12 nM

Q: Which EC50 does the source give for B2 here?
A: 4.73 nM

Q: B3 was tested. Which EC50 did it give?
A: 12.8 nM

Q: Which EC50 does the source give for B4 here?
A: 802 nM
